In patent US20220315554A1, “COMPOUNDS COMPRISING A […] LIGAND AND USE THEREOF” (priority 2019, published 2022):
Bridge positions count the residues as written; N and C are the ends. * marks the point of attachment. tMeBn(DOTA-AET) = Cys-Cys bridge (thioethers) carrying DOTA-AET; tMeBn(DOTA-PP) = Cys-Cys bridge (thioethers) carrying DOTA-PP; Hexanoyl = CCCCCC(=O)*

T1: D1 (h) (human (printed (h))), P21728
T1 chain: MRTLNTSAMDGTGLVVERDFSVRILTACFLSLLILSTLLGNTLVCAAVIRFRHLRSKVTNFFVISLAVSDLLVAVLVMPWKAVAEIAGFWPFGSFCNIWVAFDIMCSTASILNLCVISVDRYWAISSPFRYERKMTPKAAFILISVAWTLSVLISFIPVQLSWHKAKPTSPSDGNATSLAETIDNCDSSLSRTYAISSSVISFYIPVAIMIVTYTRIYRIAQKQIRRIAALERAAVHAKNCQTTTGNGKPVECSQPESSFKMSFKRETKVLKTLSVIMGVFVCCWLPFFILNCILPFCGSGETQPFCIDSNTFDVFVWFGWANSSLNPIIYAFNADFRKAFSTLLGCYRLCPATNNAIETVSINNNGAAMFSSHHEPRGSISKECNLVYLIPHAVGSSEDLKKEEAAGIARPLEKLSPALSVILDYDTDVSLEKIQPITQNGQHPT

T2: A2A (h) (human (printed (h))), P29274
T2 chain: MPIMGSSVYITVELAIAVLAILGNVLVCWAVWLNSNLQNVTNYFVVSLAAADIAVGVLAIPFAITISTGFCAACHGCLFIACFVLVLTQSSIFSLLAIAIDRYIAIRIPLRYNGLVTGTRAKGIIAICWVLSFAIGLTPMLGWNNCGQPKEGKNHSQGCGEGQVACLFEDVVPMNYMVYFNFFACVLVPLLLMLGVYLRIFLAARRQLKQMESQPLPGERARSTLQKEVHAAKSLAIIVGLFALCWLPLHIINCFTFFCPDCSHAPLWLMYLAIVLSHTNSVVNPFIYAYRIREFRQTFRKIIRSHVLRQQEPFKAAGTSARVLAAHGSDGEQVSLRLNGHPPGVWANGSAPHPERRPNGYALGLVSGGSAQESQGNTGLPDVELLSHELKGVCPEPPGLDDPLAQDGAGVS

T3: dopamine transporter (h) (human (printed (h))), Q01959
T3 chain: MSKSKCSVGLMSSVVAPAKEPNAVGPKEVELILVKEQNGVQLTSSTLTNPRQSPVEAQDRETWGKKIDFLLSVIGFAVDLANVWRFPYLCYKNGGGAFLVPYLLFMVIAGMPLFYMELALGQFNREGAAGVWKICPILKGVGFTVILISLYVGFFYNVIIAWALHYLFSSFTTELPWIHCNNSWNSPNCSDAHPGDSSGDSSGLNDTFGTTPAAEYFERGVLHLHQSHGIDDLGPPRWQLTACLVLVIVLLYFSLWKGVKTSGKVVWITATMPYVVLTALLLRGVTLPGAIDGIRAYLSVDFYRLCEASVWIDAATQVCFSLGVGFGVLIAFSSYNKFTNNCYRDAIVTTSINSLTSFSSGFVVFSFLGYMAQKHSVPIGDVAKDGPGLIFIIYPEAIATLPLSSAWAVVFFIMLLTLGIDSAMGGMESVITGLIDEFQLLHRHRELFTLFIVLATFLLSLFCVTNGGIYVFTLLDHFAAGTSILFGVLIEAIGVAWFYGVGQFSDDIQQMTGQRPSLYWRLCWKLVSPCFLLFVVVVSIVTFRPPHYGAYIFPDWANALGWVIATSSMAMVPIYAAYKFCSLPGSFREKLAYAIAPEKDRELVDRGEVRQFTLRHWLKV

T4: CCK1 (CCKA) (h) (human (printed (h))), P32238
T4 chain: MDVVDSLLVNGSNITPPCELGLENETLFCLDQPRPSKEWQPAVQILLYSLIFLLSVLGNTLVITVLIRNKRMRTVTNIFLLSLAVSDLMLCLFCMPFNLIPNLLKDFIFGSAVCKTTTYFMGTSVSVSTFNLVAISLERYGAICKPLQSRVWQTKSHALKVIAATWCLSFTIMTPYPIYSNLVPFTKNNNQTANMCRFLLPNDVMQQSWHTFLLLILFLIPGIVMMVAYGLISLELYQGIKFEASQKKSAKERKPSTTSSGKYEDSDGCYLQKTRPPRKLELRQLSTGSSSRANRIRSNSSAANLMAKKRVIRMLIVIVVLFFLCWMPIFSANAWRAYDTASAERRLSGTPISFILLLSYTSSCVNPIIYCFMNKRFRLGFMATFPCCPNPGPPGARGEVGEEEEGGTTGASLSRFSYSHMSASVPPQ


Key:
Test in all cases: radioligand displacement, 10 uM compound
Details in all cases: remark: other sources report otherwise
[1] = target: T1, D1 (h) (human (printed (h))), P21728
[2] = target: 5-HT1B (h) (human (printed (h))), P28222
[3] = target: V1a (h) (human (printed (h))), P37288
[4] = target: T2, A2A (h) (human (printed (h))), P29274
[5] = target: T3, dopamine transporter (h) (human …)
[6] = target: H1 (h) (human (printed (h))), P35367
[7] = target: M3 (h) (human (printed (h))), P20309
[8] = target: 5-HT2B (h) (human (printed (h))), P41595
[9] = target: T4, CCK1 (CCKA) (h) (human (printed (h))), …

5-HT1B (h) (human (printed (h))), P28222, sequence (P28222 whole entry): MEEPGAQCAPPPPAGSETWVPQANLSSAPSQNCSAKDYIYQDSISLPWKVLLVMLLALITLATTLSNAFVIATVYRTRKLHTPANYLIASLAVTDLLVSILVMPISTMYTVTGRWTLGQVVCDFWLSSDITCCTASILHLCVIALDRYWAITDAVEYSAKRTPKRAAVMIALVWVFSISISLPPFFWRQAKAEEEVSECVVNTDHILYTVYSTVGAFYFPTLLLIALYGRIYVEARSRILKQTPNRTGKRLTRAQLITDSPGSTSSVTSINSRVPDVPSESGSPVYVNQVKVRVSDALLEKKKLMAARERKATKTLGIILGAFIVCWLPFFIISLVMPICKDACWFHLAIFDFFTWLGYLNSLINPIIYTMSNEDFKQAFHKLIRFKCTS
H1 (h) (human (printed (h))), P35367, sequence (P35367 whole entry): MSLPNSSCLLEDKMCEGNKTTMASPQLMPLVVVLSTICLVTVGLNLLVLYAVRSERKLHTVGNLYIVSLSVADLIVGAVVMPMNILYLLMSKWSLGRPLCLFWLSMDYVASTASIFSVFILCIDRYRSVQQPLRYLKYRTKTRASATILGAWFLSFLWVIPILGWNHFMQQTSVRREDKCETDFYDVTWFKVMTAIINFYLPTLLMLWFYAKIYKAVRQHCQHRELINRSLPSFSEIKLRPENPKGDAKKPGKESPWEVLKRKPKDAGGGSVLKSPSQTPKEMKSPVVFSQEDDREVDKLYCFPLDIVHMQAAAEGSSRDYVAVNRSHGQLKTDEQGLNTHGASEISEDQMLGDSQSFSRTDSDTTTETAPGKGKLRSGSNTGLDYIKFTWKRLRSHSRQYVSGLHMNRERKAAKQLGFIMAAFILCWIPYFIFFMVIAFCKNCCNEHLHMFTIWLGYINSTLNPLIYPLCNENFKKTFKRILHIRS

Row | % Inhibition of Specific Binding [1] | % Inhibition of Specific Binding [2] | % Inhibition of Specific Binding [3] | % Inhibition of Specific Binding [4] | % Inhibition of Specific Binding [5] | % Inhibition of Specific Binding [6] | % Inhibition of Specific Binding [7] | % Inhibition of Specific Binding [8] | % Inhibition of Specific Binding [9] | Binder
1 | 0% | -11% | 16% | -4% | 12% | 11% | 10% | 2% | 24% | Hexanoyl-CPPTQFCD-NH2 (linker 1-7 via tMeBn(DOTA-PP)) [Hex-[Cys(tMeBn(DOTA-PP))-Pro-Pro-Thr-Gln-Phe-Cys]-Asp-NH2 (3BP-3407)]
2 | 7% | 8% | 1% | -16% | 7% | 4% | 1% | 3% | 16% | Hexanoyl-CPPTQFC-OH (linker 1-7 via tMeBn(DOTA-AET)) [Hex-[Cys(tMeBn(DOTA-AET))-Pro-Pro-Thr-Gln-Phe-Cys]-OH (3BP-3554)]
